Series [1] deals with T1, Raf-1 proteins present in T-cell lysates (Homo sapiens, UniProt P04049).
T1 construct: endogenous in cells; host or cells: PHA-stimulated human peripheral blood mononuclear cells (T cells), lysate
Kind of series: Cell-free system: binding of Raf-1 from T-cell lysates to FLAG-HMK-IL-2Rβ chain fusion proteins on anti-FLAG beads, anti-Raf-1 immunoblot. More on the design: decrease of Raf-1 binding in comparison to WT control: unit not given here. Conditions: T-cell lysates, anti-Raf-1 immunoblot; for binding of T-cell derived Raf-1 proteins: affinity beads coated with fusion protein. The source says: (ii) In order to study the interaction of IL-2Rβ chain with intracellular molecules, the FLAG-HMK-IL-2Rβ chain cytoplasmic domain fusion protein was purified from bacterial lysate using the M2 anti-FLAG monoclonal antibody in a standard affinity chromatography procedure. More specifically, bacterial lysate proteins were absorbed onto anti-FLAG (M2) affinity column (IBI-Kodak, New Haven, Conn., USA). After washing the column, the adsorbed proteins were eluted with either glycine buffer (pH 3) or FLAG peptide (10^−4M). Proteins in various fractions were analyzed for expected size (about 33 kDa) and purity after separation on SDS-PAGE and Commassie blue staining. The presence of a functional HMK recognition site was confirmed by phosphorylation of the purified 33 kDa IL-2Rβ chain fusion protein by HMK. More specifically, the eluted fusion proteins were tested for susceptibility to phosphorylation by incubation with the catalytic subunit of bovine heart muscle kinase (Sigma) (1 U/ul) in buffer containing 20 mM Tric-HCl, pH 7.5, 1 mM DTT, 100 mM NaCl, 10 mM MgCl2 and 1μCi [γ^32p] ATP for 30 min at 37° C. followed by SDS-PAGE and autoradiography. Purified FLAG-HMK-IL-2Rβ chain fusion proteins were used as an affinity reagent to probe for cytosolic proteins present in lysates of human T cells, metabolically labeled with [^35S ]-methionine, that bind to the IL-2Rβ chain. […] For [^35S]-methionine labeling, the cells were suspended at 4×10^7 cells/ml at 37° C. followed by addition of 0.5 mCi of [^35S]-methionine for 4 hours prior to lysis in Dounce homogenization buffer and application of the lysate to the affinity column. Several [^35S]-labeled proteins were retained by the FLAG-HMK-IL-2Rβ chain cytosolic domain fusion protein bound to the affinity column. One of these proteins was identified as Raf-1 by immunoblotting using a polyclonal antibody specific for the SP-63 peptide which corresponds to the C-terminal fragment of Raf-1. A molar excess of the competing SP-63 peptide blocked binding of the anti-SP-63 antibody to Raf-1.
Using the basic cell-free system described above, a number of FLAG-HMK-IL-2Rβ chain wild type FLAG-HMK-IL2Rβ chain deletion mutant proteins were then studied with respect to this specific interaction with Raf-i proteins present in T-cell lysates. These FLAG-HMK-IL2Rβ chain wild type (WT) and deletion mutants lacking certain defined domains of the IL-2Rβ chain were used to identify the IL-2Rβ chain domain involved in Raf-1 binding. Assay conditions were similar to those described above. […] In FIG. 1, there is shown, schematically, all of the constructs, i.e., FLAG-HMK-IL-2Rβ chain fusion proteins produced in transformed bacterial cells and used in this study. These FLAG-HMK- fusion proteins-coated beads were then used as affinity reagents to absorb Raf-1 proteins present in T-cell lysates. T-cell derived proteins bound to FLAG-HMK fusion proteins were then eluted using buffer containing FLAG peptide, separated on SDS-PAGE, transferred onto Immobilon membrane and blotted with anti-Raf-1 antibody.
The absorbed proteins were washed, eluted with FLAG peptide and probed for the presence of Raf-1 and 14-3-3 proteins on immunoblots. […] Washed cells (about 4×10^7) were lysed in Dounce homogenization buffer, centrifuged (15×10^3 xg for 15 min.) and supernatants applied onto washed anti-FLAG (M2) affinity column (IBI-Kodak) coated with bacterial lysates interacted with one of the FLAG-HMK fusion proteins. […]
(A western blot detects proteins with antibodies after separation by electrophoresis.)

The target in series [2] is T2, (His)6-Raf-1 (Homo sapiens, UniProt P04049).
T2 construct: made in house; host or cells: M15 bacteria (E. coli), pQE-30
Kind of series: Totally cell-free system: binding of bacterially produced (His)6-Raf-1 to FLAG-HMK-IL-2Rβ chain fusion proteins, anti-Raf-1 immunoblot. As to conditions: for amount of Raf-1 proteins bound, % of the positive control value (Raf-1 binding to FLAG-HMK-IL-2Rβ chain WT): estimated using Hewlett Packard ScanJet. On the procedure:
For the construction of the (His)6-Raf-1 expression plasmid, PCR was performed using the […] cDNA as template and oligonucleotide primers designed to facilitate cloning into the pQE-30 plasmid according to the manufacturer's protocol (QIAGEN, QIAexpressionist; Chatsworth, CA). (His)6-Raf-1 protein was produced in M15 bacteria by IPTG induction, and purified on Ni-NTA resin (QIAGEN). Affinity purification yielded a 72-74 kD protein which was recognized by anti Raf-1 antibody.
Accordingly, in this totally cell-free assay, FLAG-HMK-IL-2Rβ chain wild type and deletion mutants lacking at least one of several defined domains of the IL-2Rβ chain (see Example 1) were used to identify the IL-2Rβ chain domain involved in Raf-1 binding. Assay conditions were similar to those described in Example 1. Briefly, bacterially produced proteins: FLAG-HMK-IL-2Rβ chain wild type (WT), FLAG-HMK-IL-2Rβ chain containing only proline rich C-terminal (CT^+), FLAG-HMK-IL-2Rβ chain mutants lacking:serine rich region (S^−), acidic domain (A^−), acidic domain and proline rich C-terminal (A^−CT^−) were incubated with bacterially produced (His)6-Raf-1 (for all constructs see FIG. 1) followed by adsorption of FLAG-HMK-IL-2Rβ chain/Raf-1 complexes on anti-FLAG affinity beads. After extensive washing, IL-2Rβ chain/Raf-1 complexes were competitively eluted from anti-FLAG beads using buffer containing FLAG peptide. Eluted proteins were separated on SDS-PAGE, transferred onto Immobilon membrane and blotted with anti-Raf-1 antibody.

Series [3] relates to T-cell derived, active serine/threonine kinase. Kind of series: Protein kinase reaction on anti-FLAG beads coated with FLAG-HMK-IL-2Rβ chain proteins and exposed to T-cell lysates. In kind it is biochemical, human. As to conditions: for level of (His)6-Mek-1 kinase phosphorylation: kinase defective (His)6-Mek-1 as substrate; for serine/threonine kinase activity, phosphorylation of p70 protein: no exogenously added substrate. From the text:
FLAG-HMK-IL-2Rβ chain wild type and deletional mutants lacking certain defined domains of the IL-2Rβ chain (see Examples 1 and 2 and FIG. 1) were used to identify IL-2Rβ chain domain involved in binding T-cell derived, active serine/threonine kinase. Assay conditions were similar to those noted above. […] FLAG-HMK- fusion proteins coated beads were further used as affinity reagents to absorb proteins present in T-cell lysates. T-cell derived proteins bound to FLAG-MHK fusion proteins were then tested for serine/threonine kinase activity in the absence or presence of exogenous substrates: Histone H-1 or (His),-Mek-1. Products of kinase reactions were boiled in SDS-PAGE sample buffer followed by separation on SDS-PAGE, transfer onto Immobilon membrane and autoradiography. The following are the experiments that were carried out and their results: […]

For series [4], the target named is T2, (His)6-Raf-1. Description: Kinase activity toward Mek-1 after interaction of FLAG-HMK-IL-2Rβ chain with bacterially produced (His)6-Raf-1. In kind it is biochemical. As to conditions: interaction with (His)6-Raf-1; enzymatically inactive (His)6-Mek-1 substrate. How it is done: Bacterial lysates containing FLAG-HMK-IL-2Rβ chain wild type and (His)6-Raf-1 proteins were used (see Example 2) to test the hypothesis that the IL-2Rβ chain induces catalytic activity of Raf-1. Assay conditions were similar to those described above. Briefly, bacterially produced proteins: FLAG-HMK-IL-2Rβ chain wild type (WT) or FLAG-HMK (negative control) (for all constructs see FIG. 1) were incubated with bacterial lysates containing either (His)6-Raf-1 or (His)6 (negative control) followed by the absorption of protein complexes on anti-FLAG affinity beads. […] Products of kinase reactions were boiled in SDS-PAGE sample buffer followed by separation on SDS-PAGE, transfer onto Immobilon membrane and autoradiography.

B1: mutant A^−CT^−: FLAG-HMK-IL-2Rβ chain mutant lacking both acidic domain and proline rich C-terminal (protein)
chain: NCRNTGPWLKKVLKCNTPDPSKFFSQLSSEHGGDVQKWLSSPFPSSSFSPGGLAPEISPLEVLERDKVTQLLL
modifications: left off: small tags and cut ends
notes: FLAG-HMK-IL-2Rβ chain mutant lacking both acidic domain and proline rich C-terminal
Take B1: the “binding of T-cell derived Raf-1 proteins” value in series [1] is “no binding”. In series [2], the “amount of Raf-1 proteins bound, % of the positive control value (Raf-1 binding to FLAG-HMK-IL-2Rβ chain WT)” value is on record as 0%. In addition, in series [3], the “level of (His)6-Mek-1 kinase phosphorylation” value (“level” for short) is listed as “Background levels” and the “serine/threonine kinase activity, phosphorylation of p70 protein” value (“serine/threonine kinase activity” below) is reported as “no phosphorylated band p70”.

B2: FLAG-HMK-IL-2Rβ chain CT^+: FLAG-HMK-IL-2Rβ chain containing only the proline rich C-terminal (protein)
chain: QPLSGEDDAYCTFPSRDDLLLFSPSLLGGPSPPSTAPGGSGAGEERMPPSLQERVPRDWDPQPLGPPTPGVPDLVDFQPPPELVLREAGEEVPDAGPREGVSFPWSRPPGQGEFRALNARLPLNTDAYLSLQELQGQDPTHLV
modifications: left off: small tags and cut ends
notes: FLAG-HMK-IL-2Rβ chain containing only the proline rich C-terminal
Turning to B2, in series [1], the “binding of T-cell derived Raf-1 proteins” value is listed as “no binding”. Further, the “amount of Raf-1 proteins bound, % of the positive control value (Raf-1 binding to FLAG-HMK-IL-2Rβ chain WT)” value in series [2] is listed as 0%-10%. For the same molecule, in series [3], the “level” value was “Background levels” and the “serine/threonine kinase activity” value is “no phosphorylated band p70”.

B3: FLAG-HMK-IL-2Rβ chain WT: bacterially produced fusion protein: FLAG epitope, HMK site and wild type IL-2Rβ chain cytoplasmic domain (protein)
chain: NCRNTGPWLKKVLKCNTPDPSKFFSQLSSEHGGDVQKWLSSPFPSSSFSPGGLAPEISPLEVLERDKVTQLLLQQDKVPEPASLSSNHSLTSCFTNQGYFFFHLPDALEIEACQVYFTYDPYSEEDPDEGVAGAPTGSSPQPLQPLSGEDDAYCTFPSRDDLLLFSPSLLGGPSPPSTAPGGSGAGEERMPPSLQERVPRDWDPQPLGPPTPGVPDLVDFQPPPELVLREAGEEVPDAGPREGVSFPWSRPPGQGEFRALNARLPLNTDAYLSLQELQGQDPTHLV
modifications: left off: small tags and cut ends
On to B3, for which the “binding of T-cell derived Raf-1 proteins” value in series [1] is reported as “bind T-cell derived Raf-1 proteins equally well”. Further, in series [2] (anti-Raf-1 immunoblot), the “binding of Raf-1 proteins” value is “bind Raf-1 proteins equally well”. Moreover, in series [3], the “level” value is recorded as “increase” and the “serine/threonine kinase activity” value was “bind T-cell derived protein(s) expressing serine/threonine kinase activity”. Further, the “induction of kinase activity toward Mek-1 kinase” value in series [4] is given as “did not result in the induction of kinase activity”.

B4: FLAG-HMK-IL-2Rβ chain mutant A-: FLAG-HMK-IL-2Rβ chain mutant lacking the acidic domain (protein)
chain: NCRNTGPWLKKVLKCNTPDPSKFFSQLSSEHGGDVQKWLSSPFPSSSFSPGGLAPEISPLEVLERDKVTQLLLQPLSGEDDAYCTFPSRDDLLLFSPSLLGGPSPPSTAPGGSGAGEERMPPSLQERVPRDWDPQPLGPPTPGVPDLVDFQPPPELVLREAGEEVPDAGPREGVSFPWSRPPGQGEFRALNARLPLNTDAYLSLQELQGQDPTHLV
modifications: left off: small tags and cut ends
notes: FLAG-HMK-IL-2Rβ chain mutant lacking the acidic domain
For B4, the “decrease of Raf-1 binding in comparison to WT control” value in series [1] was 50-80. For the same molecule, the “amount of Raf-1 proteins bound, % of the positive control value (Raf-1 binding to FLAG-HMK-IL-2Rβ chain WT)” value in series [2] is 17-50%. Also, in series [3], the “level” value is “Background levels” and the “serine/threonine kinase activity” value is listed as “no phosphorylated band p70”.

The record behind these values is patent US20010016194A1 (priority 1999, published 2001).
